T1: Streptococcus pyogenes type II-A Cas1 with a C-terminal (His)6 tag (Streptococcus pyogenes, UniProt Q99ZW1 1-289)
T1 sequence (looked up): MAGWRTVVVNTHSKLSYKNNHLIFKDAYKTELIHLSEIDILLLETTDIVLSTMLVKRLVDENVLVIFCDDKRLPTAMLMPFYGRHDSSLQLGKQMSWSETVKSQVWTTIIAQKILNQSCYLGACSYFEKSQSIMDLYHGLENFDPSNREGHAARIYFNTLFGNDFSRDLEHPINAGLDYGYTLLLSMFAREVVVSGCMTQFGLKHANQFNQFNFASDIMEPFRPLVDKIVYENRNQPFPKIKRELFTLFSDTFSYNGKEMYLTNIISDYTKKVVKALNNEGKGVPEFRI

B1: N-terminal (His)6-MBP-tagged full-length Streptococcus pyogenes type II-A Cas2 (natural protein, UniProt Q99ZW0 1-113, looked up)
chain: MSYRYMRMILMFDMPTDTAEERKAYRKFRKFLLSEGFIMHQFSIYSKLLLNNTANNAMIGRLREHNPNKGNITLLTVTEKQFARMIYLHGERNNCIANSDERLVFLGEAFDES
B2: Cas1-(His)6-MBP-Cas2 complex (complex, Streptococcus pyogenes)
chain 1: T1 sequence (looked up)
chain 2: B1 chain
B3: Streptococcus pyogenes type II-A Csn2 (natural protein, UniProt Q99ZV9 1-220, looked up)
chain: MNLNFSLLDEPIPLRGGTILVLEDVCVFSKIVQYCYQYEEDSELKFFDHKMKTIKESEIMLVTDILGFDVNSSTILKLIHADLESQFNEKPEVKSMIDKLVATITELIVFECLENELDLEYDEITILELIKSLGVKVETQSDTIFEKCLEILQIFKYLTKKKLLIFVNSGAFLTKDEVASLQEYISLTNLTVLFLEPRELYDFPQYILDEDYFLITKNMV

Tests used:
[1] = molecular target: T1, Streptococcus pyogenes type II-A Cas1 …; test: ITC
[2] = molecular target: B3; test: ITC
[3] = molecular target: B2; test: ITC
[4] = molecular target: Streptococcus pyogenes type II-A Cas9 with a C-terminal (His)6 tag (Streptococcus pyogenes, UniProt Q99ZW2 1-1368); test: SPR
Chain of Streptococcus pyogenes type II-A Cas9 with a C-terminal (His)6 tag (Q99ZW2 whole entry): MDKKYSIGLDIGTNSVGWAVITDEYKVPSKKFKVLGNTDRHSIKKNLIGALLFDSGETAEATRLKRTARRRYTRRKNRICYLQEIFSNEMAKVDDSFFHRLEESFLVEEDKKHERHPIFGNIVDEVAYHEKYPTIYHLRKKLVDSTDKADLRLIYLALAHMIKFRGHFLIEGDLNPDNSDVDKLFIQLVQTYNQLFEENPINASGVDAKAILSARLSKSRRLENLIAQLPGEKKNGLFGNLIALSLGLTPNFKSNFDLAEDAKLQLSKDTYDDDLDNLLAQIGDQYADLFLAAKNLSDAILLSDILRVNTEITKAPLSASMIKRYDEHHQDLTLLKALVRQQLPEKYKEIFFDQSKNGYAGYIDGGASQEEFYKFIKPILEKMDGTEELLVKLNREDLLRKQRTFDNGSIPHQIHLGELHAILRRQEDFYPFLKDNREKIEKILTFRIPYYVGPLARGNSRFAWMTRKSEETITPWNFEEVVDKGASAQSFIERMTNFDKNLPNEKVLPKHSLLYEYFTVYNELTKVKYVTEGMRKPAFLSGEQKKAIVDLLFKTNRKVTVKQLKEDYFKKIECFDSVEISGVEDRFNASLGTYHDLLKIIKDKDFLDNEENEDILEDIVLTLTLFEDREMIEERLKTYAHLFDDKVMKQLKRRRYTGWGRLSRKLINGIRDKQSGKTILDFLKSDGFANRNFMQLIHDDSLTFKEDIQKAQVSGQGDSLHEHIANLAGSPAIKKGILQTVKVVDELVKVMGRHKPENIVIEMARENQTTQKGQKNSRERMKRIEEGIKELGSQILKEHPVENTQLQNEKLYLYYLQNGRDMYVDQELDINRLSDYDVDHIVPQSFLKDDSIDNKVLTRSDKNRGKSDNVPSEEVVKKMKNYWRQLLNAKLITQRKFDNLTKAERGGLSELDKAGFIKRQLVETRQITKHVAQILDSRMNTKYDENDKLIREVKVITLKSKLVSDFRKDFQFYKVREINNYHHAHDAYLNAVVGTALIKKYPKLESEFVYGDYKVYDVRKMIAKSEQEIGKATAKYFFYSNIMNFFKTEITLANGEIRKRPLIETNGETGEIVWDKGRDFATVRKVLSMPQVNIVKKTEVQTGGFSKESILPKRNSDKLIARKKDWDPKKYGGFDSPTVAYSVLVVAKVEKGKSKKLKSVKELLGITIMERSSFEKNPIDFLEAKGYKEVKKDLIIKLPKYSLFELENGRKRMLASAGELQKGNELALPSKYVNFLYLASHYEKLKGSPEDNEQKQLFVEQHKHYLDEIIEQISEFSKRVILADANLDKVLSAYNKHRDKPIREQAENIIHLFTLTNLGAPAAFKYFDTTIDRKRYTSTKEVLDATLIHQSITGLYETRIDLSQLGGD

B1 was tested, and the Kd [1] was 240 nM and the “stoichiometry N” value [1] was 0.44 (His)6-MBP-Cas2 per Cas1.

B2 was tested, and the “stoichiometry N” value [2] was 2.1 Cas1–(His)6-MBP-Cas2 complex per Csn2 tetramer.

Binder B3 has a Kd [3] of 520 nM and a Kd [4] of 110 nM.

Source: paper PMC6182153 (Nucleic Acids Research, 2018)
